We go through 35 compounds from patent US20260210939A1, “MODIFIED OLFACTORY RECEPTORS” (GIVAUDAN SA, priority 2022, published 2026).

The target of one data set is T1, OR7C1 (Homo sapiens, UniProt O76099, D296E/G302K/M297V/R299D/T295K/V126I).
T1 construct: Improved functional expression of modified OR-genes containing the truncated, optimized C-terminus; expressed in transfected cells; host or cells: HEK293T stably expressing human RTP1S(V227I) and RTP2(L220R)
T1 sequence (O76099 with tags, fused parts or gaps V126I/T295K/D296E/M297V/R299D/G302K): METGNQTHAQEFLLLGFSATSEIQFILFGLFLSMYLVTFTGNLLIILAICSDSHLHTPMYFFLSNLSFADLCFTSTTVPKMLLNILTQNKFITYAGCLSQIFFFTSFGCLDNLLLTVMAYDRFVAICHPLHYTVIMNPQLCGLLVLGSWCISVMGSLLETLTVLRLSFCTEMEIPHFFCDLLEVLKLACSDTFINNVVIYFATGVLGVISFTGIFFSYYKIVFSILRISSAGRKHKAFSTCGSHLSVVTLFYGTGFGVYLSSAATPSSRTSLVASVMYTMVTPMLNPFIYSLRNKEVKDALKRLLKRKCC
Nature of the data set: CRE-luciferase assay, HEK293T cells expressing OR7C1 (wild-type / modified C-terminus). Format: cell-based. The following applies: OR7C1 variant, 1 μM Ambermax. The text has this:
To test for possible variants of the sequence […]CC (SEQ ID NO: 86) leading to similar improved functional expression, different point mutations were introduced into the first 16 amino acids of this sequence (corresponding to […], SEQ ID NO: 10) and the variants were fused after the TM7 with OR7C1. […] The test concentrations were selected to fall into the range of partial activity of the wild-type sequence.

The target in a further data set is T2, OR7D4 (Homo sapiens, UniProt Q8NG98, D296E/E302K/G299D).
T2 construct: Improved functional expression of modified OR-genes containing the truncated, optimized C-terminus; expressed in transfected cells
T2 sequence (Q8NG98 with tags, fused parts or gaps D296E/G299D/E302K): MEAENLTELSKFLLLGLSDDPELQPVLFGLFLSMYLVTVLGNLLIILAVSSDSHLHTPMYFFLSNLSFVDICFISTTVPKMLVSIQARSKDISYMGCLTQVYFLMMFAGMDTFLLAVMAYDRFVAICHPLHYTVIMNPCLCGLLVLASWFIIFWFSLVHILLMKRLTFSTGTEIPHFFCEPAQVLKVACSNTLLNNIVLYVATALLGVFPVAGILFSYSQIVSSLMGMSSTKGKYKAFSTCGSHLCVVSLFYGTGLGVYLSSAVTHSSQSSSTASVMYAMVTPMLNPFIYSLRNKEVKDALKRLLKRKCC
Nature of the data set: CRE-luciferase assay, HEK cells expressing OR7D4 (wild-type / modified C-terminus). The following applies: for EC2 (concentration for 2-fold luciferase induction) / EC2 Fold-improvement vs. wild-type / Fold induction luciferase: OR7D4 variant; for EC2 (concentration for 2-fold luciferase induction) / EC2 Fold-improvement vs. wild-type: Androstenone. Format: cell-based. An excerpt:
Random permutations of the general C-terminal sequence RN[KR][EDQ][VMIL][KR]KA[LIV][KRH][KR][LI][LIF][KRG][KR][KR]CC (SEQ ID NO: 822) linked to OR7D4 were generated based on degenerate oligonucleotides for the C-terminal domain. For this experiment, the MfeI/XhoI fragment from pcDNA3.1(+)-mmLucy-FLAG-rho-OR7D4 containing the CMV promoter and the OR coding sequence was used to replace the EcoRI/SalI fragment of pRDVCCB-CMV-dCas9-VPH-2A-Blast (Cellecta, Inc., Mountain View, USA). Complementary degenerate oligonucleotides were then used to replace the coding region of the C-terminal domain of […] (between Bsu36I and NotI). Random clones were selected, sequenced and tested for a correct open reading frame. A total of 55 clones were obtained with the correct open reading frame of […] and a permutation of the general sequence RN[KR][EDQ][VMIL][KR]KA[LIV][KRH][KR][LI][LIF][KRG][KR][KR]CC (SEQ ID NO: 822) as the C-terminal domain. All the different clones were compared to the wild-type sequence by the functional assay in HEK cells with the ligand Androstenone tested in a dose-response test.

Turning to “SEQ ID NO: 87 (RNREVKDALKRLLKRKCC; source 1..18: note = C-terminal domain sequence)”, the “% of the activation by the optimized sequence RNKEVKDALKRLLKRKCC” value (shortened to “% of the activation”) with OR7C1 is 119.1%.
The same measure, in the same setting: next, “SEQ ID NO: 126 (RNKEVKRALKRLLKRKFK; source 1..18: note = C-terminal domain sequence)”: 280.9%.
On the same count and under the same terms, next, Val Ser: 4.3%; Phe Phe: 103.8%.
With “SEQ ID NO: 327 (RNKEVKPALKRLLKRKCC; source 1..18: note = C-terminal domain sequence)”, the “% of the activation” value in the data set with OR7C1 is −3.7%.
For “SEQ ID NO: 193 (RNKEVKDALKHLLKRKCC; source 1..18: note = C-terminal domain sequence)”, the “% of the activation” value in the data set with OR7C1 was 12.3%.
Consider Arg Phe, for which, on OR7C1, the “% of the activation” value is 130.8%.
Same read-out and setting: for “SEQ ID NO: 110 (RNKEVKGALKRLLKRKCC; source 1..18: note = C-terminal domain sequence)” the value was 41.6%.
Consider “SEQ ID NO: 325 (RNKEVKLALKRLLKRKCC; source 1..18: note = C-terminal domain sequence)”, for which the “% of the activation” value with OR7C1 worked out at 108.0%.
Same read-out and setting: next, “SEQ ID NO: 124 (RNKEVKRALKRLLKRKYP; source 1..18: note = C-terminal domain sequence)”: 239.7%; “SEQ ID NO: 89 (RNKEMKDALKRLLKRKCC; source 1..18: note = C-terminal domain sequence)”: 76.7%; “SEQ ID NO: 130 (RNKEVKKALKRLLKRKFK; source 1..18: note = C-terminal domain sequence)”: 286.4%.
As to “SEQ ID NO: 90 (RNKEVRDALKRLLKRKCC; source 1..18: note = C-terminal domain sequence)”, the “% of the activation” value with OR7C1 came to 117.4%.
As to Tyr Tyr, the “% of the activation” value at OR7C1 turned out to be 108.3%.
Still for that read-out and setting: next, “SEQ ID NO: 98 (RNKEVKDAVKRLLKRKCC; source 1..18: note = C-terminal domain sequence)”: 120.1%.
Turning to “SEQ ID NO: 297 (RNRDVRKALKRLLKRKCC; source 1..18: note = C-terminal domain sequence)”, in the data set with OR7D4, the “EC2 (concentration for 2-fold luciferase induction)” value was found to be 0.005 µM and the “EC2 Fold-improvement vs. wild-type” value came to 337.39.
For “SEQ ID NO: 274 (RNKELKKAIKRILKKKCC; source 1..18: note = C-terminal domain sequence)” the same measures were 0.095 µM and 18.20.
On to “SEQ ID NO: 284 (RNREMRKALRRLFRKRCC; source 1..18: note = C-terminal domain sequence)”, for which, in the data set with OR7D4, the “EC2 (concentration for 2-fold luciferase induction)” value was found to be 0.003 µM and the “EC2 Fold-improvement vs. wild-type” value was 545.04.
The matching figures for “SEQ ID NO: 290 (RNKDVKKALRRLFGKKCC; source 1..18: note = C-terminal domain sequence)”: 0.008 µM and 225.85.
The matching figures for “SEQ ID NO: 255 (RNREVKKAIHKLIGRKCC; source 1..18: note = C-terminal domain sequence)”: 0.010 µM and 164.23.
For “SEQ ID NO: 289 (RNKEIRKALRRLFGKKCC; source 1..18: note = C-terminal domain sequence)” the same measures were 0.014 µM and 119.65.
“SEQ ID NO: 264 (RNKDIKKAVKKLIKKKCC; source 1..18: note = C-terminal domain sequence)”: the Fold induction luciferase with OR7D4 (0.1 μM Androstenone) came out at 3.79; with OR7D4 (1 μM Androstenone), 23.26. Also, the “EC2 (concentration for 2-fold luciferase induction)” value in the data set with OR7D4 stood at 0.048 µM. For the same compound, in the data set with OR7D4, the “EC2 Fold-improvement vs. wild-type” value amounted to 36.01.
Regarding “SEQ ID NO: 294 (RNRDIRKALRKLFKKKCC; source 1..18: note = C-terminal domain sequence)”, in the data set with OR7D4, the “EC2 (concentration for 2-fold luciferase induction)” value came out at 0.008 µM and the “EC2 Fold-improvement vs. wild-type” value worked out at 224.95.
For “SEQ ID NO: 272 (RNRDLRKALRRIFKRRCC; source 1..18: note = C-terminal domain sequence)” the same measures were 0.013 µM and 136.52.
The matching figures for “SEQ ID NO: 291 (RNKELKKAIKRLIRRKCC; source 1..18: note = C-terminal domain sequence)”: 0.113 µM and 15.28.
For the compound “SEQ ID NO: 283 (RNREVKKAVKKLIGKRCC; source 1..18: note = C-terminal domain sequence)”, in the data set with OR7D4, the “EC2 (concentration for 2-fold luciferase induction)” value amounted to 0.013 µM and the “EC2 Fold-improvement vs. wild-type” value is 128.83.
In the case of “SEQ ID NO: 265 (RNRELRKAVRRLFKRRCC; source 1..18: note = C-terminal domain sequence)”, in the data set with OR7D4, the “EC2 (concentration for 2-fold luciferase induction)” value amounted to 0.022 µM and the “EC2 Fold-improvement vs. wild-type” value came to 78.45.
In the case of “SEQ ID NO: 288 (RNKEVRKALKKLFGKKCC; source 1..18: note = C-terminal domain sequence)”, the Fold induction luciferase with OR7D4 (0.1 μM Androstenone) is reported as 17.84. This compound also showed a Fold induction luciferase with OR7D4 (1 μM Androstenone) of 28.81. In the data set with OR7D4, the “EC2 (concentration for 2-fold luciferase induction)” value was found to be 0.006 µM and the “EC2 Fold-improvement vs. wild-type” value came to 294.52.
“SEQ ID NO: 275 (RNRDVRKAIRKLLKRKCC; source 1..18: note = C-terminal domain sequence)”: in the data set with OR7D4, the “EC2 (concentration for 2-fold luciferase induction)” value was found to be 0.005 µM and the “EC2 Fold-improvement vs. wild-type” value came to 323.20.
For “SEQ ID NO: 259 (RNRDMKKAVHKLFGKRCC; source 1..18: note = C-terminal domain sequence)” the same measures were 0.020 µM and 84.30.
In the case of “SEQ ID NO: 277 (RNRDVRKAVRKLFKRRCC; source 1..18: note = C-terminal domain sequence)”, in the data set with OR7D4, the “EC2 (concentration for 2-fold luciferase induction)” value worked out at 0.005 µM and the “EC2 Fold-improvement vs. wild-type” value came to 325.72.
As for “SEQ ID NO: 266 (RNKELRKAVRKIIKKKCC; source 1..18: note = C-terminal domain sequence)”, in the data set with OR7D4, the “EC2 (concentration for 2-fold luciferase induction)” value was found to be 0.041 µM and the “EC2 Fold-improvement vs. wild-type” value was 41.85.
Turning to `C[C@]12CCC(=O)C[C@@H]1CC[C@@H]1[C@@H]2CC[C@]2(C)C=CC[C@@H]12` [Androstenone, reference compound], the Comments on efficacy on OR7D4 was 3-fold lower. At OR7D4 (changed C-term. vs wild-type), this compound returned a Fold-improvement potency of 66 and a Fold-improvement threshold of 265.
For “SEQ ID NO: 263 (RNRDVRKAVRRLFRKRCC; source 1..18: note = C-terminal domain sequence)”, in the data set with OR7D4, the “EC2 (concentration for 2-fold luciferase induction)” value is 0.006 µM and the “EC2 Fold-improvement vs. wild-type” value is given as 304.87.
The matching figures for “SEQ ID NO: 302 (RNREVRKAVRKLFRRKCC; source 1..18: note = C-terminal domain sequence)”: 0.014 µM and 126.99.
